Assay results published in US20050032245A1 (Harvard, published 2005).
Oregon Green 514 = pentafluorofluorescein derivative

What was measured:
[1] = target: T1, MBP-UL42Δ340 (truncated UL42 processivity subunit of HSV DNA polymerase as maltose binding protein fusion) (herpes simplex virus, UniProt P10226 1-339, N-terminal MBP fusion, not carried in the letters); assay: fluorescence polarization; MBP-UL42 titrated (1 to 50 µM) into 1 nM labeled peptide, Hofstee transformation
T1 construct: Expressed in E. coli BL21(de3)pLysS and purified over amylose; also called wt UL42; HSV MBP-UL42
T1 sequence: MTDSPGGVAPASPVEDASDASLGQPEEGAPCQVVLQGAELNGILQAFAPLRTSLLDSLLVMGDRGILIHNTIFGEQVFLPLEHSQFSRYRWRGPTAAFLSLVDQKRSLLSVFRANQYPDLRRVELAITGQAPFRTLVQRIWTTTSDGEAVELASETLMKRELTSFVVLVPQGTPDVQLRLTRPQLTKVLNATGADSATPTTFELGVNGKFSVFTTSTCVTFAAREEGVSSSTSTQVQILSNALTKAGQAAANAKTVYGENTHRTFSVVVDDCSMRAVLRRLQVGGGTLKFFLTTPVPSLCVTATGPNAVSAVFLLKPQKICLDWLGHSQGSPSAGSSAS

[2] = target: T1, MBP-UL42Δ340 (truncated UL42 …); assay: fluorescence polarization competition; peptide A displaces labeled peptide E from 7 µM UL42, Hill equation

B1: Oregon Green 514-labeled peptide E (18 C-terminal amino acids of HSV Pol) (peptide)
peptide: {Oregon Green 514}-ATAEETRRMLHRAFDTLA-NH2
notes: also called Oregon Green-peptide E; labeled tracer
[1]
  Kd: 5 µM

B2: peptide A (36-mer derived from the C-terminus of HSV Pol) (peptide)
peptide: DDVAARLRTAGFGAVGAGATAEETRRMLHRAFDTLA
notes: also called 36-mer peptide A; unlabeled peptide A
[2]
  IC50: ~6 µM
